US20190359698A1 (YAMAGUCHI UNIVERSITY, published 2019)
Residue numbers refer to the chain shown, from its start.

B1: IgG clone TF1413-02d028 (antibody, V domains shown)
VH: QVQLKESGPELEKPGASVKISCKASGYSFTGYNMNWVKQSNGKSLEWIGNIDPYYGGTSYNQKFKGKATLTVDKSSSTAYMQLKSLTSEDSAVYYCARGDYRAYYFDYWGQGTTLTVSS
VL: DIQMTQSPKFMSTSVGDRVSITCKASQNVRTAVAWYQQKPGQSPKALIYLASNRHTGVPDRFTGSGSGTDFTLTISNVQSEDLADYFCLQHWNYPLTFGAGTKLELKR
notes: also called TF1413-02d028 IgG antibody; scFv clone [TF1413-02d028] antibody
B2: IgG clone TF1413-02e040 (antibody, V domains shown)
VH: EVMLVESGPELVKPGASMKISCKASGYSFTGYTMNWVKQSHGKNLEWIGLINPYNGGTSYNQNFKGKATLTVDKSSSTAYMELLSLTSEDSAVYYCARGYYGRFDYWGQGTTLTVSS
VL: B1 VL with Q3L, M4L
notes: also called TF1413-02e040 IgG antibody
B3: IgG clone TF1413-03e034 (antibody, V domains shown)
VH: B1 VH with Q1E, K5Q, E6Q, D100N, R102G, A103Y, Y105A, F106M, T114S, L115V
VL: B1 VL with Q3V, T5S
notes: also called TF1413-03e034 IgG antibody
B4: IgG clone TF1413-02e014 (antibody, V domains shown)
VH: QVQLKQSGAELVRSGASVKLSCTASGFNIKDYYMHWVKQRPEQGLEWIGWIDPENGDTEYAPKFQGKATMTADTSSNTAYLQLSSLTSEDTAVYYCNAGYYDYDGYAMDYWGQGTSVTVSS
VL: DIVLTQSPKFMSTSVGDRVSITCKASQDVGTAVAWYQQKPGQSPKLLIYWASTRHTGVPDRFTGSGSGTDFTLTISNVQSEDLADYFCQQYSSYPLTFGGGTKLEIKR
notes: also called TF1413-02e014 IgG antibody
B5: IgG clone TF1413-03e005 (antibody, V domains shown)
VH: B4 VH with Q6E, G99F, S121R
VL: DVVMTQTPSSLSASLGERVSLTCRASQEISGYLSWLQQKPDGTIKRLIYAASTLDSGVPKRFSGSRSGSDYSLTISSLESEDFADYYCLQYASYPLTFGAGTKLELKR
notes: also called TF1413-03e005 IgG antibody
B6: IgG clone TF1413-03e015 (antibody, V domains shown)
VH: EVQLQQSGPELVKPGASMKISCKASGYSFTGYTMNWVKQSHGKNLEWIGLINPYNGGTSYNQKFKGKATLTVDKSSSTAYMELLSLTSEDSAVYYCARGDYYPPYAMDYWGQGTSVTVSS
VL: DIVMSQSPKFMSTSVGDRVSVTCKASQNVGTNVAWYQQKPGQSPKPLIYSASYRYSGVPDRFTGSGSGTDFTLTISNVQSEDLAEYFCQQYNRYPLTFGVGTKLEIKR
notes: also called TF1413-03e015 IgG antibody
B7: IgG clone TF1413-02e004 (antibody, V domains shown)
VH: QVQLQQSGAELVKPGAPVKLSCKASGYTFTSYWMNWVKQRPGRGLEWIGRIDPSDSETHYNQKFKDEATLTVDKSSSTAYIQLSSLTSEDSAVYYCARGYYAMDYWGQGTSVTVSS
VL: DIVLTQSPKFMSTSVGDRVSITCKASQDVSTAVAWYQQKPGQSPKLLIYSASYRYTGVPDRFTGSGSGTDFTFTISSVQAEDLAVYYCQQHYSTPTFGGGTKLEIKR
notes: also called TF1413-02e004 IgG antibody
B8: IgG clone TF1413-02e030 (antibody, V domains shown)
VH: EVQLQQSGAELVRPGALVKLSCKASGFNIKDYYMHWVKQRPEQGLEWIGWIDPENGNTIYDPKFQGKASITADTSSNTAYLQLSSLTSEDTAVYYCAISTMITTLDYWGQGTTLTVSS
VL: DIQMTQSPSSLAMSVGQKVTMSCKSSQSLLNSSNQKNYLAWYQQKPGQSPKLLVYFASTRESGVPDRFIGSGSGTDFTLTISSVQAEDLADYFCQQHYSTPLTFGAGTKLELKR
notes: also called TF1413-02e030 IgG antibody
B9: IgG clone TF1413-02d039 (antibody, V domains shown)
VH: EVKLVESGGGLVKPGGSLKLSCAASGFAFSSYDMSWVRQTPEKRLEWVAYISSGGGSTYYPDTVKGRFTISRDNAKNTLYLQMSSLKSEDTAMYYCARRGLRRAMDYWGQGTSVTVSS
VL: DVVMTQTPLSLPVSLGDQASISCRSSQSLVHSNGNTYLHWYLQKPGQSPKLLIYKVSNRFSGVPDRFSGSGSGTDFTLKISRVEAEDLGVYFCSQSTHVPLTFGAGTKLELKR
notes: also called TF1413-02d039 IgG antibody
B10: IgG clone TF1413-03e004 (antibody, V domains shown)
VH: B7 VH with Q5K, E67K, A102G, M103S, D104N, S111T, V112L
VL: B6 VL with V3K, S5T, P46A, R93S, V100A, I106L
notes: also called TF1413-03e004 IgG antibody

Target: T1, GPC3 N-terminal fragment (polypeptide consisting of the amino acid sequence represented by SEQ ID NO: 155) (human)
T1 construct: domain: transmembrane domain; also called GPC3 N-terminal fragment-expressing cell line; N-terminal polypeptide of GPC3; not shown: HA tag added to the N terminus by the pDisplay vector; myc tag added to the C terminus of the PDGFR by the pDisplay vector
Assay: FCM of IgG on GPC3 N-terminal fragment-expressing cell line

T1 sequence (P09619 other isoform, or with tags, fused parts or gaps): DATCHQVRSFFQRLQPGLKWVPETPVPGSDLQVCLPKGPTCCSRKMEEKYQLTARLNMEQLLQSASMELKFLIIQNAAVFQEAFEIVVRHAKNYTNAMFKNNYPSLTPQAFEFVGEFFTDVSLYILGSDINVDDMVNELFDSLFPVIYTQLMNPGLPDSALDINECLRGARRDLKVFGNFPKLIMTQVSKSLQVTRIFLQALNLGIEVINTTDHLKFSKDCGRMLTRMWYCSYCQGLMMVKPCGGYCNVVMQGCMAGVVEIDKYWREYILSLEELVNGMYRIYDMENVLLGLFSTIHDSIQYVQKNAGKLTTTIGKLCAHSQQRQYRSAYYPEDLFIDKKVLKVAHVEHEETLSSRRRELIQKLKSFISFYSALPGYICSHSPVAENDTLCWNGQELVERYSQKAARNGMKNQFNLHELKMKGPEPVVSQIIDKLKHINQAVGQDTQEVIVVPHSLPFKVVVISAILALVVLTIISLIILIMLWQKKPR

binding result	Binder
binds	B1
binds	B2
binds	B3
binds	B4
binds	B5
no binding	B6
binds	B7

Target: T2, GPC3 C-terminal fragment (polypeptide consisting of the amino acid sequence represented by SEQ ID NO: 156) (human)
T2 construct: domain: transmembrane domain; also called GPC3 C-terminal fragment-expressing cell line; C-terminal polypeptide of GPC3; not shown: HA tag added to the N terminus by the pDisplay vector; myc tag added to the C terminus of the PDGFR by the pDisplay vector
Assay: FCM of IgG on GPC3 C-terminal fragment-expressing cell line

T2 sequence (P09619 other isoform, or with tags, fused parts or gaps): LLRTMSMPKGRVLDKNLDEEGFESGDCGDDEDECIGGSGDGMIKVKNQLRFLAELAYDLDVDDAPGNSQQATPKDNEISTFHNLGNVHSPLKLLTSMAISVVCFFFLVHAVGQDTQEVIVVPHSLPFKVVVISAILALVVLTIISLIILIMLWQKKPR

binding result	Binder
no binding	B1
no binding	B2
no binding	B3
no binding	B8
no binding	B9
no binding	B4
no binding	B5
no binding	B7
no binding	B10
